Read-outs that look alike come from different tables or passages of the source. Ends that are not written are not given here.
B1: FYCO1 WT LIR peptide (peptide)
chain: TDYRPPDDAVFDIITDEELCQIQE
modifications: 24-mer limits inferred: 10 residues on each side of the core FDII (1280-1283), as in the arrays; exact peptide is in Supplementary Table 2. N- or C-terminal biotin if used in BLI, cellulose-bound if in the array
B2: LC3C (recombinant, BLI) (natural protein)
chain: MPPPQKIPSVRPFKQRKSLAIRQEEVAGIRAKFPNKIPVVVERYPRETFLPPLDKTKFLVPQELTMTQFLSIIRSRMVLRATEAFYLLVNNKSLVSMSATMAEIYRDYKDEDGFVYMTYASQETFG

Legend:
Experiment in all cases: BLI
[1] = molecular target: GABARAP L63I (recombinant, BLI) (human, UniProt O95166 1-117, L63I)
[2] = molecular target: GABARAP F62K (recombinant, BLI) (human, UniProt O95166 1-117, F62K)
[3] = molecular target: GABARAP R28K (recombinant, BLI) (human, UniProt O95166 1-117, R28K)
[4] = molecular target: LC3B E62Q (recombinant, BLI) (human, UniProt Q9GZQ8 1-120, E62Q)
[5] = molecular target: T1, GABARAP-L2 (recombinant, BLI) (human, UniProt P60520 1-117)
[6] = molecular target: GABARAP (recombinant, BLI) (human, UniProt O95166 1-117)
-L1 (recombinant, BLI) = -L1 (recombinant, BLI) (human, UniProt Q9H0R8 1-117)
LC3C (recombinant, BLI) [7] = molecular target: B2
LC3A (recombinant, BLI) [8] = molecular target: T2, LC3A (recombinant, BLI) (human, UniProt Q9H492 1-121)
LC3B (recombinant, BLI) [9] = molecular target: T3, LC3B (recombinant, BLI) (human, UniProt Q9GZQ8 1-120)
[10] = molecular target: T1, GABARAP-L2 (recombinant, BLI); remark: listed apart in the source
LC3C (recombinant, BLI) [11] = molecular target: B2
LC3A (recombinant, BLI) [12] = molecular target: T2, LC3A (recombinant, BLI); remark: listed apart in the source
[13] = molecular target: GABARAP L55V (recombinant, BLI) (human, UniProt O95166 1-117, L55V)
[14] = molecular target: GABARAP Q59E (recombinant, BLI) (human, UniProt O95166 1-117, Q59E)
[15] = molecular target: GABARAP K24Q/Y25H/R28K (recombinant, BLI) (human, UniProt O95166 1-117, K24Q | Y25H | R28K)
[16] = molecular target: LC3B Q26K/H27Y/K30R (recombinant, BLI) (human, UniProt Q9GZQ8 1-120, Q26K | H27Y | K30R)
[17] = molecular target: GABARAP K24Q (recombinant, BLI) (human, UniProt O95166 1-117, K24Q)
[18] = molecular target: GABARAP Y25H (recombinant, BLI) (human, UniProt O95166 1-117, Y25H)
[19] = molecular target: GABARAP K24Q/Y25H/Q59E/F60L (recombinant, BLI) (human, UniProt O95166 1-117, K24Q | Y25H | Q59E | F60L)
[20] = molecular target: LC3B Q26K/H27Y/E62Q (recombinant, BLI) (human, UniProt Q9GZQ8 1-120, Q26K | H27Y | E62Q)
LC3B (recombinant, BLI) [21] = molecular target: T3, LC3B (recombinant, BLI); remark: listed apart in the source
[22] = molecular target: PCM1 LIR peptide mutated at P1962 (X7) (BLI) (UniProt Q15154, biotin (position not given))

Chain of -L1 (recombinant, BLI) (Q9H0R8 whole entry): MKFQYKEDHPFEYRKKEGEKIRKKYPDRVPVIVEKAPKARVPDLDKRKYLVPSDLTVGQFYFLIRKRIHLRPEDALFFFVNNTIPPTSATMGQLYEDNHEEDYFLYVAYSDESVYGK
T1 sequence (P60520 whole entry): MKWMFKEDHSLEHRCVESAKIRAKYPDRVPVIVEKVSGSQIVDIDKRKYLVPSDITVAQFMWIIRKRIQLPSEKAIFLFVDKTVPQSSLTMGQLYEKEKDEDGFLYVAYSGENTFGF

NISQKSDEEDFVKVEDLPLKLTIY (also: biotin, position not given here) [PCM1 LIR peptide (biotinylated, BLI)]
Kd [1]: 2 µM
Kd [2]: 3.8 µM
Kd [3]: 4.2 µM
Kd [4]: 160 µM

NISQKSDEEDFDIIEDLPLKLTIY (also: biotin, position not given here) [PCM1 FDII LIR peptide (BLI)]
Kd [5]: 17 µM
Kd [6]: 1.4 µM
Kd (-L1 (recombinant, BLI)): 0.91 µM
Kd (LC3C (recombinant, BLI) [7]): 2.4 µM
Kd (LC3A (recombinant, BLI) [8]): 4.6 µM
Kd (LC3B (recombinant, BLI) [9]): 21.8 µM

NISQKSDEEDFVKIEDLPLKLTIY (also: biotin, position not given here) [PCM1 V1958I LIR peptide]
Kd [5]: 7.6 µM
Kd [6]: 1.5 µM
Kd (LC3C (recombinant, BLI) [7]): 6.9 µM

B1
Kd [5]: 17.4 µM
Kd [6]: 1.7 µM
Kd (LC3C (recombinant, BLI) [7]): 3 µM
Kd (LC3A (recombinant, BLI) [8]): 0.78 µM
Kd (LC3B (recombinant, BLI) [9]): 1.1 µM

NISQKSDEEDFDKVEDLPLKLTIY (also: biotin, position not given here) [PCM1 V1956D LIR peptide]
Kd [6]: 7.7 µM

NISQKSDEEDFVKVTDLPLKLTIY (also: biotin, position not given here) [PCM1 E1959T LIR peptide (BLI)]
Kd [5]: 19 µM
Kd [6]: 3.1 µM
Kd (-L1 (recombinant, BLI)): 2.9 µM

TDYRPPDDAVFDIITDEELCQIQE
Kd (-L1 (recombinant, BLI)): 0.9 µM

SKDSSCDTDDFVMVPAQFPGDLVA (also: biotin, position not given here) [ULK1 LIR peptide (biotinylated, BLI)]
Kd [10]: 0.53 µM
Kd (LC3C (recombinant, BLI) [11]): 2.5 µM
Kd (LC3A (recombinant, BLI) [12]): 5.9 µM
Kd [13]: 0.13 µM
Kd [14]: 0.36 µM
Kd [15]: 3.2 µM
Kd [16]: 2.9 µM
Kd [17]: 0.42 µM
Kd [2]: 0.15 µM
Kd [18]: 0.26 µM
Kd [19]: 5.6 µM
Kd [3]: 0.39 µM
Kd [20]: 5.6 µM

PDSIDAHTFDFETIPHPNIEQTIH (also: biotin, position not given here) [FIP200 LIR peptide (biotinylated, BLI)]
Kd [13]: 8.5 µM
Kd [15]: 70.3 µM
Kd [1]: 3.8 µM
Kd [3]: 12.5 µM

NISQKSDEEDFVIVEDLPLKLTIY (also: biotin, position not given here) [PCM1 K1957I LIR peptide (BLI)]
Kd [5]: 1.19 µM
Kd [6]: 0.17 µM
Kd (-L1 (recombinant, BLI)): 0.13 µM
Kd (LC3C (recombinant, BLI) [7]): 0.38 µM
Kd (LC3A (recombinant, BLI) [8]): 3.9 µM

GGSSGNTHDDFVMIDFKPAFSKDD (also: biotin, position not given here) [ATG13 LIR peptide (biotinylated, BLI)]
Kd [10]: 3.1 µM
Kd (LC3C (recombinant, BLI) [11]): 0.48 µM
Kd (LC3B (recombinant, BLI) [21]): 9.6 µM
Kd [19]: 3.3 µM
Kd [20]: 3.1 µM
Kd [4]: 4.5 µM

B2
Kd [22]: 10.8 µM

SDNCSGGDDDWTHLSSKEVDPSTG (also: biotin, position not given here) [p62 LIR peptide (biotinylated, BLI)]
Kd (LC3C (recombinant, BLI) [11]): 2.7 µM

Reference: paper PMC6499816 (2019)
